{"source": "patent US20220143024A1", "about": "“METHODS OF USING IMIPRIDONES” (Board of Regents, The University of Texas System, priority 2019, published 2022)", "test_in_all_cases": "BioID-MS", "key": {"SDHB (human)": {"molecular_target": "SDHB (human) (UniProt P21912)"}, "MRRF (human)": {"molecular_target": "MRRF (human) (UniProt Q96E11)"}, "NDUFAF3 (human)": {"molecular_target": "NDUFAF3 (human) (UniProt Q9BU61)"}, "BCKDHB (human)": {"molecular_target": "BCKDHB (human) (UniProt P21953)"}, "ACSS1 (human)": {"molecular_target": "ACSS1 (human) (UniProt Q9NUB1)", "sequence (Q9NUB1 38-689 limits assumed)": "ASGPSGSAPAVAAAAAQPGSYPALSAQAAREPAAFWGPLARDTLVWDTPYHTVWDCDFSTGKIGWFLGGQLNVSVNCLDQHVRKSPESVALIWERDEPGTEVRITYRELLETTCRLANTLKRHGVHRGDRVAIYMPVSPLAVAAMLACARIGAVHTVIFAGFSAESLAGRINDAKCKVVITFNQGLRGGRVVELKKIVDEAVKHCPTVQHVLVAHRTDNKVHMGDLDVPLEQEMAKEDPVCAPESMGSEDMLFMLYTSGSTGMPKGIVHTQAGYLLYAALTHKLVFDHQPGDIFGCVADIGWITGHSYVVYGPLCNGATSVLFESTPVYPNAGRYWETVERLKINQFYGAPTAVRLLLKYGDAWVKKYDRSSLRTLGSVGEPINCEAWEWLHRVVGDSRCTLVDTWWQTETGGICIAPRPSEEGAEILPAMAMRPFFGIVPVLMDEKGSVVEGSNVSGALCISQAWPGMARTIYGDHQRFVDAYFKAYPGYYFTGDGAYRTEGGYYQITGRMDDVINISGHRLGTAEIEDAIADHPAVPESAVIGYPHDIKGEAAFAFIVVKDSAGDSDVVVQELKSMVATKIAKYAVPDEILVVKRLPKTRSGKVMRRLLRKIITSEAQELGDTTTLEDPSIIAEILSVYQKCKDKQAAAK"}, "PRKCA (human)": {"molecular_target": "PRKCA (human) (UniProt P17252)"}, "SDHAF3 (human)": {"molecular_target": "SDHAF3 (human) (UniProt Q9NRP4)", "sequence (Q9NRP4 31-125 limits assumed)": "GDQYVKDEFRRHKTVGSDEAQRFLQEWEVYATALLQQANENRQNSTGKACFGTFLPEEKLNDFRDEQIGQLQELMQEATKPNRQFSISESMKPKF"}, "MRPL54 (human)": {"molecular_target": "MRPL54 (human) (UniProt Q6P161)"}, "MRPL10 (human)": {"molecular_target": "MRPL10 (human) (UniProt Q7Z7H8)"}, "NDUFS6 (human)": {"molecular_target": "NDUFS6 (human) (UniProt O75380)"}, "NADK2 (human)": {"molecular_target": "NADK2 (human) (UniProt Q4G0N4)", "sequence (Q4G0N4 63-442 limits assumed)": "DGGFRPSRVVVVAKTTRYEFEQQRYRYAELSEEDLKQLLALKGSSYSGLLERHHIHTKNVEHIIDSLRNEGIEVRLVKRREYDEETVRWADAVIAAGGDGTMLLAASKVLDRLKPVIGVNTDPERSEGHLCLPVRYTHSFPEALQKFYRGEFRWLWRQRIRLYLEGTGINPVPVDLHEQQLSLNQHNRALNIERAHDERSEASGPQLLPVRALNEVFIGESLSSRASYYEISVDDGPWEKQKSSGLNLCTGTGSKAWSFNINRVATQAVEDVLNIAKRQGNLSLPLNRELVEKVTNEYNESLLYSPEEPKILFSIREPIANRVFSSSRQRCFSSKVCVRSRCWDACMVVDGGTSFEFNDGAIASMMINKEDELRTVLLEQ"}, "VARS2 (human)": {"molecular_target": "VARS2 (human) (UniProt Q5ST30)", "sequence (Q5ST30 27-1063 limits assumed)": "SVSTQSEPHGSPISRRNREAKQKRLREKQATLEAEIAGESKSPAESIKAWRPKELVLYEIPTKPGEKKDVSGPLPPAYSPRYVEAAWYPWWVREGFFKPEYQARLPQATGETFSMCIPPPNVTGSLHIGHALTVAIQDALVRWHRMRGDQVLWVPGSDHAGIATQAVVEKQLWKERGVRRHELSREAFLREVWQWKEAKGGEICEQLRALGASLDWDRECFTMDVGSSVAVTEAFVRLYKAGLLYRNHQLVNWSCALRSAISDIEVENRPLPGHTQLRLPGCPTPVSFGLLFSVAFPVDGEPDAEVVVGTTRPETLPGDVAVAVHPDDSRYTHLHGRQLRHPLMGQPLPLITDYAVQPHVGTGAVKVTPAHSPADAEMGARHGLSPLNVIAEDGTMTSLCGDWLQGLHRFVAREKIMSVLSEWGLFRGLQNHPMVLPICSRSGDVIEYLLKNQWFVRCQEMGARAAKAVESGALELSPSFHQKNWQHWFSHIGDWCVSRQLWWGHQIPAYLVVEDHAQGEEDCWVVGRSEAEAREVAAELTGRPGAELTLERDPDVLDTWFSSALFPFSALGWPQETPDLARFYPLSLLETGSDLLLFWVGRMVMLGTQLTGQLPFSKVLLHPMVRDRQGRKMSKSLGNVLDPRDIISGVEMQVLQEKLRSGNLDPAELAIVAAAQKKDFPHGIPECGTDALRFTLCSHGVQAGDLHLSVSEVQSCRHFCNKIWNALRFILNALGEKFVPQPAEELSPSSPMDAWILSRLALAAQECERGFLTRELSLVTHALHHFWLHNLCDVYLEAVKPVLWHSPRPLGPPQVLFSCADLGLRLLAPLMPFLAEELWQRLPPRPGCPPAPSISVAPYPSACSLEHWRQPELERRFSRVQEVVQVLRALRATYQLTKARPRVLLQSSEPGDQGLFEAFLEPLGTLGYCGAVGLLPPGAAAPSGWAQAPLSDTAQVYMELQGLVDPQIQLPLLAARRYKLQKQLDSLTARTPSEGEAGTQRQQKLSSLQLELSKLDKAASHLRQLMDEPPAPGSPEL"}, "HADH (human)": {"molecular_target": "HADH (human) (UniProt Q16836)"}, "MTPAP (human)": {"molecular_target": "MTPAP (human) (UniProt Q9NVV4)"}, "ABAT (human)": {"molecular_target": "ABAT (human) (UniProt P80404)", "sequence (P80404 29-500 limits assumed)": "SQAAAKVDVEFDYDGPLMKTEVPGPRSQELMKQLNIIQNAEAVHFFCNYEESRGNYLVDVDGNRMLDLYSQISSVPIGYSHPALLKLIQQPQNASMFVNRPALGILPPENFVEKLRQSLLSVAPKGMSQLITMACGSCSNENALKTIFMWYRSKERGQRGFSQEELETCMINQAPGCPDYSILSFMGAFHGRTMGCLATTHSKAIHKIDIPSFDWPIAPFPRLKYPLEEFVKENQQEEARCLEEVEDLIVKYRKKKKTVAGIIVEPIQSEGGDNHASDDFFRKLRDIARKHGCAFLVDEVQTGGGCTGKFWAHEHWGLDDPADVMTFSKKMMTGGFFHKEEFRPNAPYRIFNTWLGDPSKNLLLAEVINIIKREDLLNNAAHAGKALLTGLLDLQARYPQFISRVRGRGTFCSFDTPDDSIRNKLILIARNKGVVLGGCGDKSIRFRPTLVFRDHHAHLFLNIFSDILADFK"}, "ERAL1 (human)": {"molecular_target": "ERAL1 (human) (UniProt O75616)", "sequence (O75616 44-437 limits assumed)": "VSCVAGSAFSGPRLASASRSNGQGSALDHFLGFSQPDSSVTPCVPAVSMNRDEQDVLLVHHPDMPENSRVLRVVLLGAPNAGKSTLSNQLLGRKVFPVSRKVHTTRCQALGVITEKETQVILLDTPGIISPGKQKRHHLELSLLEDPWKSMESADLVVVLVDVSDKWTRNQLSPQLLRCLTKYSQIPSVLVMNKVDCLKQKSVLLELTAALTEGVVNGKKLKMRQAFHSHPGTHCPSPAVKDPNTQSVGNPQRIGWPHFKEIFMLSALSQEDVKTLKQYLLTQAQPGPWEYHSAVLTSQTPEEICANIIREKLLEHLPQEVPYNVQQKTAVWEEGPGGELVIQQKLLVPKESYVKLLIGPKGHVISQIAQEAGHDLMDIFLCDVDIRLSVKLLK"}, "NDUFS2 (human)": {"molecular_target": "NDUFS2 (human) (UniProt O75306)", "sequence (O75306 34-463 limits assumed)": "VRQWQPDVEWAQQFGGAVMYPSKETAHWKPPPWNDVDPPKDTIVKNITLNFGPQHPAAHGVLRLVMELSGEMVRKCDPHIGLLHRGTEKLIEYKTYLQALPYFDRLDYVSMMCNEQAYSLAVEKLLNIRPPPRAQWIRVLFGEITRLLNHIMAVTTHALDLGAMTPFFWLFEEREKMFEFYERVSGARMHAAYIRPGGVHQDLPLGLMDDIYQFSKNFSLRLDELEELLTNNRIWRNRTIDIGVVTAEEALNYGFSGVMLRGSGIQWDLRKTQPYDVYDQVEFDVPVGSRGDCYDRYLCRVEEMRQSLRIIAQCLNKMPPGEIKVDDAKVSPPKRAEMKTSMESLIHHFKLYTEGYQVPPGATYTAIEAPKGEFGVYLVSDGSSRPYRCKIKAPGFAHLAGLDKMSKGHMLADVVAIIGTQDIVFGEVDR"}, "ABCB10 (human)": {"molecular_target": "ABCB10 (human) (UniProt Q9NRK6)"}, "COX4I1 (human)": {"molecular_target": "COX4I1 (human) (UniProt P13073)", "sequence (P13073 23-169 limits assumed)": "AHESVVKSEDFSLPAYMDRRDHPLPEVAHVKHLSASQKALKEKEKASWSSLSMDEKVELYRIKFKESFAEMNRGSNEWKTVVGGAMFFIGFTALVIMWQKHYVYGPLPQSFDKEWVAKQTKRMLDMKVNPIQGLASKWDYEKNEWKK"}, "TAC01 (human)": {"molecular_target": "TAC01 (human) (UniProt Q9BSH4)"}, "NDUFV3 (human)": {"molecular_target": "NDUFV3 (human) (UniProt P56181)", "sequence (P56181 35-108 limits assumed)": "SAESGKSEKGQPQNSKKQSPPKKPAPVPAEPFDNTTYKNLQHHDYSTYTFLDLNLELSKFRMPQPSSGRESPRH"}, "ACAT1 (human)": {"molecular_target": "ACAT1 (human) (UniProt P24752)"}, "CLIC4 (human)": {"molecular_target": "CLIC4 (human) (UniProt Q9Y696)"}, "NDUFA7 (human)": {"molecular_target": "NDUFA7 (human) (UniProt O95182)"}, "MRPS11 (human)": {"molecular_target": "MRPS11 (human) (UniProt P82912)"}, "AIFM1 (human)": {"molecular_target": "AIFM1 (human) (UniProt O95831)"}, "COX5A (human)": {"molecular_target": "COX5A (human) (UniProt P20674)"}, "NIPSNAP2 (human)": {"molecular_target": "NIPSNAP2 (human) (UniProt O75323)"}, "ACADSB (human)": {"molecular_target": "ACADSB (human) (UniProt P45954)"}, "ATPAF2 (human)": {"molecular_target": "ATPAF2 (human) (UniProt Q8N5M1)"}, "GBAS (human)": {"molecular_target": "GBAS (human) (UniProt O75323)"}, "SUCLG1 (human)": {"molecular_target": "SUCLG1 (human) (UniProt P53597)"}, "HARS2 (human)": {"molecular_target": "HARS2 (human) (UniProt P49590)"}, "SSBP1 (human)": {"molecular_target": "SSBP1 (human) (UniProt Q04837)"}, "TFAM (human)": {"molecular_target": "TFAM (human) (UniProt Q00059)"}, "C7orf55 (human)": {"molecular_target": "C7orf55 (human) (UniProt Q96HJ9)"}, "HINT2 (human)": {"molecular_target": "HINT2 (human) (UniProt Q9BX68)"}, "POLG2 (human)": {"molecular_target": "POLG2 (human) (UniProt Q9UHN1)"}, "SPRYD4 (human)": {"molecular_target": "SPRYD4 (human) (UniProt Q8WW59)"}, "IDE (human)": {"molecular_target": "IDE (human) (UniProt P14735)"}, "MRPL21 (human)": {"molecular_target": "MRPL21 (human) (UniProt Q7Z2W9)"}, "PPIF (human)": {"molecular_target": "PPIF (human) (UniProt P30405)"}, "AARS2 (human)": {"molecular_target": "AARS2 (human) (UniProt Q5JTZ9)"}, "ACADM (human)": {"molecular_target": "ACADM (human) (UniProt P11310)"}, "MRPL14 (human)": {"molecular_target": "MRPL14 (human) (UniProt Q6P1L8)"}, "MRPL48 (human)": {"molecular_target": "MRPL48 (human) (UniProt Q96GC5)"}, "MRPS7 (human)": {"molecular_target": "MRPS7 (human) (UniProt Q9Y2R9)"}, "MARS2 (human)": {"molecular_target": "MARS2 (human) (UniProt Q96GW9)", "sequence (Q96GW9 30-593 limits assumed)": "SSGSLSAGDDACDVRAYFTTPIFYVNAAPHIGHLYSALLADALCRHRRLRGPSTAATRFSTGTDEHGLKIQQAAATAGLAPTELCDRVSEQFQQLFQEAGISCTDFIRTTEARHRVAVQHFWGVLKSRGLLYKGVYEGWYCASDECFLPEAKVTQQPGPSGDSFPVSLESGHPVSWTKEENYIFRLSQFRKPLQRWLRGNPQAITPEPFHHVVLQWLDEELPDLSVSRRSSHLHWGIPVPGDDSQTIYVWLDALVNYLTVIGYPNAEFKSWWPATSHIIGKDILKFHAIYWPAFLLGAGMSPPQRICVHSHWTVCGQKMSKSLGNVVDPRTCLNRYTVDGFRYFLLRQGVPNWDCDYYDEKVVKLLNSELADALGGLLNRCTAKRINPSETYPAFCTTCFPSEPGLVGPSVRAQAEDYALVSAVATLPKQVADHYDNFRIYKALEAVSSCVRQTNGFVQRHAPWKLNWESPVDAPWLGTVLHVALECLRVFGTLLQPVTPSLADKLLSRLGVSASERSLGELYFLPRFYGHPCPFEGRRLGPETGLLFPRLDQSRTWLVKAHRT"}, "NMNAT3 (human)": {"molecular_target": "NMNAT3 (human) (UniProt Q96T66)"}, "HSD17B8 (human)": {"molecular_target": "HSD17B8 (human) (UniProt Q92506)"}, "FOXRED1 (human)": {"molecular_target": "FOXRED1 (human) (UniProt Q96CU9)"}, "ACADVL (human)": {"molecular_target": "ACADVL (human) (UniProt P49748)"}, "IBA57 (human)": {"molecular_target": "IBA57 (human) (UniProt Q5T440)", "sequence (Q5T440 40-356 limits assumed)": "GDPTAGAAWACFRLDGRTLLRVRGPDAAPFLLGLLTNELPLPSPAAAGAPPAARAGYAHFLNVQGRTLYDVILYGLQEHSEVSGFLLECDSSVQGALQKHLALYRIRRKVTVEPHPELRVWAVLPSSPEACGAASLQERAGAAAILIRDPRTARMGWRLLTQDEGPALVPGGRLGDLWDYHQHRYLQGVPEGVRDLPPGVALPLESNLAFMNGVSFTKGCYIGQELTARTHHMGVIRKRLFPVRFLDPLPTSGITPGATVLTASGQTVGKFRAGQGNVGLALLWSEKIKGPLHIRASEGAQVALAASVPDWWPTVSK"}, "NDUFV2 (human)": {"molecular_target": "NDUFV2 (human) (UniProt P19404)"}, "NDUFS8 (human)": {"molecular_target": "NDUFS8 (human) (UniProt O00217)"}, "PYCR2 (human)": {"molecular_target": "PYCR2 (human) (UniProt Q96C36)", "sequence (Q96C36 2-320 limits assumed)": "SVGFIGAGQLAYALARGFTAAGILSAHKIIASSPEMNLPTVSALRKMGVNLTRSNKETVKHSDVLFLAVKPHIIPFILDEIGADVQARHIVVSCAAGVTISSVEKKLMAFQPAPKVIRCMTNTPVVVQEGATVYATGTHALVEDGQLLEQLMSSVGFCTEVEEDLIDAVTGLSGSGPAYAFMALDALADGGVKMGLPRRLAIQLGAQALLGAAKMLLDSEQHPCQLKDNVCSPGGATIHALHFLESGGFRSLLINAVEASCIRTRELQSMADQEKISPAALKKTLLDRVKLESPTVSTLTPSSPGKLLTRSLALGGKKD"}, "THEM4 (human)": {"molecular_target": "THEM4 (human) (UniProt Q5T1C6)"}, "THNSL1 (human)": {"molecular_target": "THNSL1 (human) (UniProt Q8IYQ7)"}}}
{"substance": "FlagBirA-ClpP (Y118A) (from UniProt P06709 1-321; Q16740 57-277) (enzyme)", "values": [{"measurement": "Log2 Fold change (vs control)", "setting": "SDHB (human)", "value": -0.6, "unit": "log2"}, {"measurement": "Log2 Fold change (vs control)", "setting": "MRRF (human)", "value": -0.1, "unit": "log2"}, {"measurement": "Log2 Fold change (vs control)", "setting": "NDUFAF3 (human)", "value": 0.46, "unit": "log2"}, {"measurement": "Log2 Fold change (vs control)", "setting": "BCKDHB (human)", "value": 0.79, "unit": "log2"}, {"measurement": "Log2 Fold change (vs control)", "setting": "ACSS1 (human)", "value": -1.46, "unit": "log2"}, {"measurement": "Log2 Fold change (vs control)", "setting": "PRKCA (human)", "value": -3.58, "unit": "log2"}, {"measurement": "Log2 Fold change (vs control)", "setting": "SDHAF3 (human)", "value": -0.03, "unit": "log2"}, {"measurement": "Log2 Fold change (vs control)", "setting": "MRPL54 (human)", "value": -3, "unit": "log2"}, {"measurement": "Log2 Fold change (vs control)", "setting": "MRPL10 (human)", "value": -0.21, "unit": "log2"}, {"measurement": "Log2 Fold change (vs control)", "setting": "NDUFS6 (human)", "value": -0.26, "unit": "log2"}, {"measurement": "Log2 Fold change (vs control)", "setting": "NADK2 (human)", "value": 0.06, "unit": "log2"}, {"measurement": "Log2 Fold change (vs control)", "setting": "VARS2 (human)", "value": 0.76, "unit": "log2"}, {"measurement": "Log2 Fold change (vs control)", "setting": "HADH (human)", "value": 0.8, "unit": "log2"}, {"measurement": "Log2 Fold change (vs control)", "setting": "MTPAP (human)", "value": -0.78, "unit": "log2"}, {"measurement": "Log2 Fold change (vs control)", "setting": "ABAT (human)", "value": -3.58, "unit": "log2"}, {"measurement": "Log2 Fold change (vs control)", "setting": "ERAL1 (human)", "value": -1.33, "unit": "log2"}, {"measurement": "Log2 Fold change (vs control)", "setting": "NDUFS2 (human)", "value": 0.1, "unit": "log2"}, {"measurement": "Log2 Fold change (vs control)", "setting": "ABCB10 (human)", "value": -1.32, "unit": "log2"}, {"measurement": "Log2 Fold change (vs control)", "setting": "COX4I1 (human)", "value": 0.17, "unit": "log2"}, {"measurement": "Log2 Fold change (vs control)", "setting": "TAC01 (human)", "value": 0.07, "unit": "log2"}, {"measurement": "Log2 Fold change (vs control)", "setting": "NDUFV3 (human)", "value": 0.05, "unit": "log2"}, {"measurement": "Log2 Fold change (vs control)", "setting": "ACAT1 (human)", "value": -0.01, "unit": "log2"}, {"measurement": "Log2 Fold change (vs control)", "setting": "CLIC4 (human)", "value": -2.81, "unit": "log2"}, {"measurement": "Log2 Fold change (vs control)", "setting": "NDUFA7 (human)", "value": -2.22, "unit": "log2"}, {"measurement": "Log2 Fold change (vs control)", "setting": "MRPS11 (human)", "value": -0.34, "unit": "log2"}, {"measurement": "Log2 Fold change (vs control)", "setting": "AIFM1 (human)", "value": -2.32, "unit": "log2"}, {"measurement": "Log2 Fold change (vs control)", "setting": "COX5A (human)", "value": 0.45, "unit": "log2"}, {"measurement": "Log2 Fold change (vs control)", "setting": "NIPSNAP2 (human)", "value": 0.61, "unit": "log2"}, {"measurement": "Log2 Fold change (vs control)", "setting": "ACADSB (human)", "value": -0.2, "unit": "log2"}, {"measurement": "Log2 Fold change (vs control)", "setting": "ATPAF2 (human)", "value": -0.91, "unit": "log2"}, {"measurement": "Log2 Fold change (vs control)", "setting": "GBAS (human)", "value": -0.38, "unit": "log2"}, {"measurement": "Log2 Fold change (vs control)", "setting": "SUCLG1 (human)", "value": -0.28, "unit": "log2"}, {"measurement": "Log2 Fold change (vs control)", "setting": "HARS2 (human)", "value": -0.49, "unit": "log2"}, {"measurement": "Log2 Fold change (vs control)", "setting": "SSBP1 (human)", "value": 0.89, "unit": "log2"}, {"measurement": "Log2 Fold change (vs control)", "setting": "TFAM (human)", "value": 0.63, "unit": "log2"}, {"measurement": "Log2 Fold change (vs control)", "setting": "C7orf55 (human)", "value": -0.74, "unit": "log2"}, {"measurement": "Log2 Fold change (vs control)", "setting": "HINT2 (human)", "value": 0.09, "unit": "log2"}, {"measurement": "Log2 Fold change (vs control)", "setting": "POLG2 (human)", "value": -0.89, "unit": "log2"}, {"measurement": "Log2 Fold change (vs control)", "setting": "SPRYD4 (human)", "value": 0.22, "unit": "log2"}, {"measurement": "Log2 Fold change (vs control)", "setting": "IDE (human)", "value": -0.15, "unit": "log2"}, {"measurement": "Log2 Fold change (vs control)", "setting": "MRPL21 (human)", "value": -0.72, "unit": "log2"}, {"measurement": "Log2 Fold change (vs control)", "setting": "PPIF (human)", "value": 0.09, "unit": "log2"}, {"measurement": "Log2 Fold change (vs control)", "setting": "AARS2 (human)", "value": -0.14, "unit": "log2"}, {"measurement": "Log2 Fold change (vs control)", "setting": "ACADM (human)", "value": -0.4, "unit": "log2"}, {"measurement": "Log2 Fold change (vs control)", "setting": "MRPL14 (human)", "value": 0, "unit": "log2"}, {"measurement": "Log2 Fold change (vs control)", "setting": "MRPL48 (human)", "value": 0.15, "unit": "log2"}, {"measurement": "Log2 Fold change (vs control)", "setting": "MRPS7 (human)", "value": 0.71, "unit": "log2"}, {"measurement": "Log2 Fold change (vs control)", "setting": "MARS2 (human)", "value": 0.23, "unit": "log2"}, {"measurement": "Log2 Fold change (vs control)", "setting": "NMNAT3 (human)", "value": -4, "unit": "log2"}, {"measurement": "Log2 Fold change (vs control)", "setting": "HSD17B8 (human)", "value": -2.58, "unit": "log2"}, {"measurement": "Log2 Fold change (vs control)", "setting": "FOXRED1 (human)", "value": -4.09, "unit": "log2"}, {"measurement": "Log2 Fold change (vs control)", "setting": "ACADVL (human)", "value": 0.28, "unit": "log2"}, {"measurement": "Log2 Fold change (vs control)", "setting": "IBA57 (human)", "value": 1.65, "unit": "log2"}, {"measurement": "Log2 Fold change (vs control)", "setting": "NDUFV2 (human)", "value": -0.47, "unit": "log2"}, {"measurement": "Log2 Fold change (vs control)", "setting": "NDUFS8 (human)", "value": 0.19, "unit": "log2"}, {"measurement": "Log2 Fold change (vs control)", "setting": "PYCR2 (human)", "value": 0.26, "unit": "log2"}, {"measurement": "Log2 Fold change (vs control)", "setting": "THEM4 (human)", "value": -0.17, "unit": "log2"}, {"measurement": "Log2 Fold change (vs control)", "setting": "THNSL1 (human)", "value": 0.03, "unit": "log2"}]}
